Measured values published in patent JP2021054739A, “ビオチン改変二量体とフタロシアニン染料とのコンジュゲート” (dated 2021).

T1: CEACAM5 (Recombinant Human CEACAM-5/CD66e Protein) (Homo sapiens, UniProt P06731)
T1 construct: purchased R&D SYSTEMS
T1 sequence (P06731 35-702): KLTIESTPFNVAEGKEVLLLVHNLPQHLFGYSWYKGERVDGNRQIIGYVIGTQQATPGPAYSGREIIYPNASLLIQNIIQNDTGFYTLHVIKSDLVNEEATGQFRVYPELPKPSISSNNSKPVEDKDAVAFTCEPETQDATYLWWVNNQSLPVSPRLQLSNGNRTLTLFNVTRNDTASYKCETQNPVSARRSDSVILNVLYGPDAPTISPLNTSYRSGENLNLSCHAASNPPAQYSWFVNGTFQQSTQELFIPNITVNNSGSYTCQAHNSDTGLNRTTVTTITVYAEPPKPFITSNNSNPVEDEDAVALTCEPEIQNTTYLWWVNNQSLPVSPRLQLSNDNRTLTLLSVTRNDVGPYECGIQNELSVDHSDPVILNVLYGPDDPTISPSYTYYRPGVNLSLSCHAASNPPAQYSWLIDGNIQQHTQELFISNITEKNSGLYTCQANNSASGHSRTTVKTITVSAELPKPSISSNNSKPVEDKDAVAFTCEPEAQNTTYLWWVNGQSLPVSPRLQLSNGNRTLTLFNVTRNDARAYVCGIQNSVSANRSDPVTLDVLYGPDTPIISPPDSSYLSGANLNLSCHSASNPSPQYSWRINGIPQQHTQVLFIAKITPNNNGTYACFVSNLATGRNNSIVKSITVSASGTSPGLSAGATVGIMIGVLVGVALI


Experiments:
[1] = target: T1, CEACAM5 (Recombinant Human CEACAM-5/CD66e Protein); assay: SPR (Biacore T200), CEA-V2122 on immobilised CEACAM5; type: binding
[2] = test system: CEACAM5 on CEACAM5-positive MKN-45 cells and CEACAM5-negative DLD1 cells [CEACAM5陽性のヒト胃がん由来MKN-45細胞とCEACAM5陰性のヒト結腸がん由来DLD1細胞]; assay: Cell staining with FITC-labelled CEA-V2122 (In Cell Analyzer 6000); type: cell-based, human
[3] = SPR, Single-Cycle Kinetics, Bivalent Analyze fit, analyte CEA-V2122 1E-08 M to 6.25E-10 M

Row | KD (kd1/ka1) ([1]; SPR, Single-Cycle Kinetics, Bivalent Analyze fit, KD = kd1/ka1) | ka1 [1, 3] | kd1 [1, 3] | binding to CEACAM5 (in words) ([1]; from sensorgram and KD value, Fig. 3) | Molecule | recognition of CEACAM5 on the cell membrane surface (in words) ([2]; 20 nM CEA-V2122-FITC, 4℃, 30 min, Fig. 5) | behaviour of CEACAM5 after CEA-V2122-FITC binding (in words) ([2]; MKN45 cells, time series, Fig. 6)
1 | 1.078E-12 | 3.208E+5 | 3.461E-7 | 強く結合する | CEA-V2122: anti-CEACAM5 scFv joined by amino acid linker GGGGSGGGG to streptavidin variant V2122 (SEQ ID NO: 3) (protein) QVKLEQSGAEVVKPGASVKLSCKASGFNIKDSYMHWLRQGPGQRLEWIGWIDPENGDTEYAPKFQGKATFTTDTSANTAYLGLSSLRPEDTAVYYCNEGTPTGPYYFDYWGQGTLVTVSSGGGGSGGGGSGGGGSENVLTQSPSSMSVSVGDRVNIACSASSSVPYMHWLQQKPGKSPKLLIYLTSNLASGVPSRFSGSGSGTDYSLTISSVQPEDAATYYCQQRSSYPLTFGGGTKLEIKGGGGSGGGGAEAGITGTWSDQLGDTFIVTAGADGALTGTYENAVGGAESRYVLTGRYDSAPATDGSGTALGWTVAWKNNSKNAHSATTWSGQYVGGADAKINTQWLLTSGTTNANAWKSTLVGHDTFTKVKPSAASHHHHHH |  | 
2 |  |  |  |  | CEA-V2122-FITC: CEA-V2122 labelled with FITC (Fluorescein Labeling Kit - NH2) (conjugate) QVKLEQSGAEVVKPGASVKLSCKASGFNIKDSYMHWLRQGPGQRLEWIGWIDPENGDTEYAPKFQGKATFTTDTSANTAYLGLSSLRPEDTAVYYCNEGTPTGPYYFDYWGQGTLVTVSSGGGGSGGGGSGGGGSENVLTQSPSSMSVSVGDRVNIACSASSSVPYMHWLQQKPGKSPKLLIYLTSNLASGVPSRFSGSGSGTDYSLTISSVQPEDAATYYCQQRSSYPLTFGGGTKLEIKGGGGSGGGGAEAGITGTWSDQLGDTFIVTAGADGALTGTYENAVGGAESRYVLTGRYDSAPATDGSGTALGWTVAWKNNSKNAHSATTWSGQYVGGADAKINTQWLLTSGTTNANAWKSTLVGHDTFTKVKPSAASHHHHHH | 細胞膜表面のCEACAM5を特異的に認識する | 細胞膜表面に滞留する
